Data taken from PMC2374443.

Molecular target: integrin-associated protein (CD47/IAP) (human (endogenous in primary articular chondrocytes))
Sequence (Q08722 19-323): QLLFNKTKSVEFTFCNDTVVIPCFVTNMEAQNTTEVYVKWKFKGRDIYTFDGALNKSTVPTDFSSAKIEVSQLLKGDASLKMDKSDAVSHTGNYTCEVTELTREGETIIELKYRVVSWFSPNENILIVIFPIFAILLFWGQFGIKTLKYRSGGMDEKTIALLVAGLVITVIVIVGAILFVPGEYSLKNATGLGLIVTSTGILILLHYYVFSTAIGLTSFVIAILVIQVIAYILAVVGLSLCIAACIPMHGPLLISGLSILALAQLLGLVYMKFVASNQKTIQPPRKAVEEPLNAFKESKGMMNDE

percentage change of membrane potential of normal chondrocytes after 20 min of 0.33 Hz mechanical stimulation in the presence of anti-CD47/IAP antibody Bric 126 (without antibody +21): 2%
percentage change of membrane potential of osteoarthritic chondrocytes after 20 min of 0.33 Hz mechanical stimulation in the presence of anti-CD47/IAP antibody Bric 126 (without antibody -42): -2%
percentage change of membrane potential of osteoarthritic chondrocytes after 20 min of 0.33 Hz mechanical stimulation in the presence of anti-TSP-1 antibody (without antibody -42): 3%
Substance: thrombospondin-1 (TSP-1) (from UniProt P07996 19-1170) (natural protein)
